What was measured:
Type in all cases: cell-based
[1] = test system: human non-small cell lung cancer cells A549; assay: inhibitory effect on human pulmonary fibrosis cell model (TGFβ1-stimulated, qPCR); conditions: 10 nmol recombinant human TGFβ1, different concentrations of synthetic micropeptide, co-incubation 24 h, qPCR (FIG. 13)
From the text: (§1) Compared with the related art, this application has the following beneficial effects: • (1) This application provides a lncRNA and a nucleotide sequence thereof. Through analysis of sequencing data for multiple organ fibroses, it is discovered that the lncRNA molecule ENSG00000272654 is expressed at a low level in the organ fibroses. […] The lncRNA molecule can be used for diagnosis or auxiliary diagnosis and treatment or auxiliary treatment of organ fibrosis, or can be used in preparation of a reagent for diagnosis or auxiliary diagnosis and treatment or auxiliary treatment of organ fibrosis. • (2) This application provides a nucleotide sequence of an open reading frame of the lncRNA. The nucleotide sequence can code new micropeptide HMBJ. […] Then, the extracted total RNA is reverse-transcribed by using a reverse transcription reagent, and then mRNA expressions of gene Col1a1, TGFβ1, and CTGF in the three organ fibrosis cell models are detected by real-time fluorescence quantification PCR. […]
Human non-small cell lung cancer cells A549 were cultured in a cell incubator at 37° C. under 5% CO2 until a cell density was 80% or more. […] Then, the cells were resuspended in a complete medium and counted by using a cell counter. […]

[2] = test system: human hepatic stellate cells LX-2; assay: inhibitory effect on human liver fibrosis cell model (TGFβ1-stimulated, qPCR); conditions: LX-2 cells, 10 nmol recombinant human TGFβ1, different concentrations of synthetic micropeptide, co-incubation 24 h, qPCR (FIG. 11)
From the text: as §1
In this example, inhibitory effect of the micropeptide HMBJ on a human liver fibrosis cell model was detected. […] Then, the cells were resuspended in a complete medium and counted by using a cell counter. […]

[3] = test system: human renal proximal tubule cells HK2; assay: inhibitory effect on human renal fibrosis cell model (TGFβ1-stimulated, qPCR); conditions: 10 nmol recombinant human TGFβ1, different concentrations of synthetic micropeptide, co-incubation 24 h, qPCR (FIG. 12)
From the text: as §1
Human renal proximal tubule cells HK2 were cultured in a cell incubator at 37° C. under 5% CO2 until a cell density was 80% or more. […] Then, the cells were resuspended in a complete medium and counted by using a cell counter. […]

Measured: inhibitory effect on mRNA expressions of gene Col1a1, TGFβ1, and CTGF

B1: HMBJ: new human endogenous micropeptide of 71 amino acids (SEQ ID NO. 3) coded by lncRNA ENSG00000272654, made by solid-phase synthesis (peptide, listed as Homo sapiens)
chain: MEAKLRVLVPAETGISETHDEHETFSLSLGSHSATQMNGVTFPHVTLLSLLLRAGPLHNLFKCSQLSLAPT
significant inhibitory effect: all assays above

Source: US20260167685A1, “NEW MICROPEPTIDE HMBJ AND USE THEREOF” (NANJING ANJI BIOTECHNOLOGY CO., LTD, priority 2023, published 2026)
